Results taken from publication PMC2172933.

Molecular target: neural cell adhesion molecule 140 (NCAM140), rat, expressed in CHO cells (rat) (UniProt P13596)
Assay: co-IP

Chain of UniProt P13596 (P13596 20-858): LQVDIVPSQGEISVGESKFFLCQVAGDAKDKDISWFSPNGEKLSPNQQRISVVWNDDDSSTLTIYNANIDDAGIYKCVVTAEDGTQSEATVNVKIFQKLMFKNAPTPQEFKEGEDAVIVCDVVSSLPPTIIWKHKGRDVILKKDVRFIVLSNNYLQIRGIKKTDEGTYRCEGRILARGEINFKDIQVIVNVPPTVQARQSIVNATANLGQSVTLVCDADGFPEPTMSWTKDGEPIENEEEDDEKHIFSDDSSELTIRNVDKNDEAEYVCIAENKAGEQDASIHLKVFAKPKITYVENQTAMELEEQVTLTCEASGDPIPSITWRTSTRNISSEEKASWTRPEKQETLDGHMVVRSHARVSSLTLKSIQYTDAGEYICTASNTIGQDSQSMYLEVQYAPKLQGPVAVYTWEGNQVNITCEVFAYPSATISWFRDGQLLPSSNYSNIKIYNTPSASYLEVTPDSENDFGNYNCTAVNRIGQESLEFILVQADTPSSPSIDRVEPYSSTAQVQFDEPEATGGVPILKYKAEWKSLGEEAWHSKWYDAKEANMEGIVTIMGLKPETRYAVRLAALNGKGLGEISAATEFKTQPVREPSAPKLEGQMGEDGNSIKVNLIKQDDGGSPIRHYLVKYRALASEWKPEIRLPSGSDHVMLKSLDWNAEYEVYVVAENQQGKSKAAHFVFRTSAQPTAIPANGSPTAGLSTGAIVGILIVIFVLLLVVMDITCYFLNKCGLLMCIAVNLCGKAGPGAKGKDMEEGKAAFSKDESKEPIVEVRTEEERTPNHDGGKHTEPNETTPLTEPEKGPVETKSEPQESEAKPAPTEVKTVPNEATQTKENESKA

Question: For “βI spectrin, endogenous in CHO cells, A0A9J7GYU9 1-2329”, which percent of the amount of spectrin that coprecipitated with NCAM180 (set to 100%) is on record?
Answer: 69.8%
